Reference: patent US20230272055A1 (Incyte, published 2023)
Where a chain is given by its changes, count along the chain named.

T1: human mutCALR on BaF3 cells stably expressing human MPL and human mutCALR (MPL-mutCALR cells) (human)
T1 construct: also called mutant calreticulin
T1 chain: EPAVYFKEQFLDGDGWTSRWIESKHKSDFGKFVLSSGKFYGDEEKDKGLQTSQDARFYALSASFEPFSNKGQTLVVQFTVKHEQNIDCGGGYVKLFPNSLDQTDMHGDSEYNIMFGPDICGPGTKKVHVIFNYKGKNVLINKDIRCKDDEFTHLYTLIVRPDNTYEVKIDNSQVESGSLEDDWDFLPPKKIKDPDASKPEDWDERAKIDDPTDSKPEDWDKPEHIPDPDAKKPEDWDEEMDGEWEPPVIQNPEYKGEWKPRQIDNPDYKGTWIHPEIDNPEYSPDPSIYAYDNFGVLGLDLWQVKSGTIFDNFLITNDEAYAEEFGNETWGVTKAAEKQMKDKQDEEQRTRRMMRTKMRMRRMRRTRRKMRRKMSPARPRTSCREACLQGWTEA

T2: human Type 1 mutCALR on Ba/F3 cells expressing MPL and Type 1 mutCALR (human)
T2 chain: T1 chain

B1: anti-mutCALR antibody clone 19 (antibody, human IgG1, lambda, V domains shown)
VH: EVQLVQSGAEVKKPGASVKVSCKVSGYTLTELSMQWVRQAPGKGLEWMGGFDPDDGETMYAEKFQGRLTVTEDTPTDTVYMELRSLTSEDTALYFCATSPGYDFFDYWGQGTLVTVSS
VL: SYVLTQPLSVSVALGQTARITCGGSNIGDIRVHWYQQKPGQAPVLVVYDDSDRPSGIPERFSGSNSGNTATLTINRVEAGDEADYYCQVWDSSNDLLIFGGGTKLTVLG
B2: anti-mutCALR antibody clone 20 (antibody, human IgG1, lambda, V domains shown)
VH: B1 VH with P75S
VL: B1 VL with L8P, L14P, Q16K, S25N, D29S, I30K, R31G
notes: human IgG1
B3: anti-mutCALR antibody clone 21 (antibody, human IgG1, lambda, V domains shown)
VH: B1 VH with K23E, P75S
VL: SYVLTQPPSVSVAPGQTARVSCGGNNIGSKSVNWYRQKPGQAPVLVIYDDSDRPSGIPERFSGSNSGNTATLTISRVEAGDEADYYCQVWDSSNDLLIFGGGTKLTVLG
notes: human IgG1
B4: anti-mutCALR antibody clone 22 (antibody, human IgG1, lambda, V domains shown)
VH: B1 VH with P75S
VL: B1 VL with L8P, L14P, Q16K, S25N, D29S, I30K, R31N
notes: human IgG1
B5: anti-mutCALR antibody clone 23 (antibody, human IgG1, lambda, V domains shown)
VH: B1 VH with P75S
VL: B1 VL with L8P, L14P, S25N, D29I, I30K, R31S
notes: human IgG1
B6: anti-mutCALR antibody clone 24 (antibody, human IgG1, lambda, V domains shown)
VH: B1 VH with F64L, P75S
VL: B1 VL with L8P, L14P, Q16K, S25N, D29S, I30K, R31S
notes: human IgG1
B7: anti-mutCALR antibody clone 25 (antibody, human IgG1, lambda, V domains shown)
VH: B1 VH with P75S
VL: B1 VL with V3E, L8P, S11A, L14P, S25N, D29R, I30K, R31A
notes: human IgG1
B8: anti-mutCALR antibody clone 26 (antibody, human IgG1, lambda, V domains shown)
VH: B1 VH with P75S
VL: B3 VL with V20I, S21T, N33H, R36Q, I47V, N94I, L96H, L105V
notes: human IgG1
B9: anti-mutCALR antibody clone 27 (antibody, human IgG1, lambda, V domains shown)
VH: B1 VH with P75S
VL: B1 VL with L8P, L14P, S25N, D29I, I30K, R31S, S51R
notes: human IgG1
B10: anti-mutCALR antibody clone 28 (antibody, human IgG1, lambda, V domains shown)
VH: B1 VH with P75S
VL: B3 VL with V3E, V20I, S21T, N33H, R36Q, I47V, S92A, S93D, N94S, L96Q
notes: human IgG1
B11: anti-mutCALR antibody clone 29 (antibody, human IgG1, lambda, V domains shown)
VH: B1 VH with P75S
VL: B3 VL with Q16K, V20I, S21T, N33H, R36Q, I47V, N94S, T103A
notes: human IgG1
B12: anti-mutCALR antibody clone 30 (antibody, human IgG1, lambda, V domains shown)
VH: B1 VH with P75S
VL: B1 VL with L8P, L14P, Q16K, R19T, S25N, D29T, I30K, R31S
notes: human IgG1
B13: anti-mutCALR antibody clone 37 (antibody, human IgG1, lambda, V domains shown)
VH: QVQLVQSGAEVKKPGATVKISCKVSGYSFTDYFIHWVQQAPGKGLAWVGLVDPEDGETIYAEKFQGRVTITADTSTDTAYMELSSLRSEDTAVYYCATPGGILTDPDAFDIWGQGTMVTVSS
VL: QSALTQPASVSGSPGQSITISCTGTSSDVGGYNYVSWYQQHPGKAPKLMIYDVSNRPSGVSNRFSGSKSGNTASLTISGLQAEDEADYYCSSYTSSSTFYVFGTGTKVTVLG
notes: human IgG1
B14: anti-mutCALR antibody clone 31 (antibody, human IgG1, lambda, V domains shown)
VH: B13 VH
VL: QSALTQPASVSGSPGQSVTISCTGTSSDVGGYNYVSWYQHHPGKAPKLMIYDVNKRPSGVPDRFSGSKSGNTASLTISGLQAEDEADYYCSSYIPSSTRWVFGGGTKLTVLG
notes: human IgG1
B15: anti-mutCALR antibody clone 32 (antibody, human IgG1, lambda, V domains shown)
VH: B13 VH
VL: B13 VL with D52E, F99P
notes: human IgG1
B16: anti-mutCALR antibody clone 35 (antibody, human IgG1, lambda, V domains shown)
VH: B13 VH with K63R
VL: B13 VL with D52E, F99P
notes: human IgG1
B17: anti-mutCALR antibody clone 36 (antibody, human IgG1, lambda, V domains shown)
VH: B13 VH
VL: B13 VL with A8R, I18V, T23A, S26G, Q40H, S54N, N55K, S61P, N62D
notes: human IgG1
B18: anti-mutCALR antibody clone 6 (antibody, human IgG1, lambda)
heavy: not shown
light: QSALTQPASVSGSPGQSITISCTGTSSDVGGYNYVSWYQQHPGKAPKLMIYEVSNRPSGVSNRFSGSNSGNTATLTINRVEAGDEADYYCQVWDSSNDLLIFGGGTKLTVLGQPKAAPSVTLFPPSSEELQANKATLVCLISDFYPGAVTVAWKADSSPVKAGVETTTPSKQSNNKYAASSYLSLTPEQWKSHRSYSCQVTHEGSTVEKTVAPTECS
notes: human IgG1
B19: anti-mutCALR antibody clone 11 (antibody, human IgG1, lambda, V domains shown)
VH: B1 VH with Q3R, P75S
VL: QSALTQPRSVSGSPGQSVTISCTGTSSDVGGYNYVSWYQQHPGKAPKLMIYDVSKRPSGVPDRFSGSNSGNTATLTINRVEAGDEADYYCQVWDSSNDLLIFGGGTKLTVLG
notes: human IgG1
B20: anti-mutCALR antibody clone 53 (antibody, human IgG1, lambda, V domains shown)
VH: QVQLVQSGAEVKKPGASVKVSCKVSGYTLTELSMHWVRQAPGKGLEWMGGFDPEDGETIYAQKFQGRVTMTEDTSTDTAYMELSSLRSEDTAVYYCATDIQGLAEFDYWGQGTLVTVSS
VL: QSALTQPRSVSGSPGQSVTISCTGTNTDVGAYIDVSWYQQHPGKAPKLIIYDVSKWPSGVPDRFSGSKSGNTASLTISGLQAEDEADYYCCSYAGNHSFSFGGGTKVTVLG
notes: human IgG1
B21: anti-mutCALR antibody clone 33 (antibody, human IgG1, lambda, V domains shown)
VH: B13 VH
VL: B14 VL with A8R, T23A, S26G, Y34H
notes: human IgG1
B22: anti-mutCALR antibody clone 38 (antibody, human IgG1, kappa, V domains shown)
VH: EVQPVQSGAEVKKPGSSVKVSCKASGGTFSSYAISWVRQAPGQGLEWMGLVDPEDGETIYAEKFRGRVTITADTSTDTAYMELSSLRSEDTAVYYCATEESYGPWGQGTLVTVSS
VL: DIQLTQSPSSLSASVGDRVTITCQASQDISNYLNWYQQKPGKAPKLLIYDASNLETGVPSRFSGSGSGTEFTLTISSLQPEDFATYYCQQLNSYPLTFGGGTKLEIKR
notes: human IgG1
B23: anti-mutCALR antibody clone 39 (antibody, human IgG1, kappa, V domains shown)
VH: B22 VH with P4L, R65Q
VL: B22 VL with N34D
notes: human IgG1
B24: anti-mutCALR antibody clone 52 (antibody, human IgG1, kappa, V domains shown)
VH: EVQLVQSGAEVKKPGASVKVSCKVSGYTLTELSMHWVRQAPGKGLEWMGLVDPEDGETIYAEKFQGRVTITADTSTDTAYMELSSPRSEDTAVYYCATTIGDDYFDYWGQGTLVTVSS
VL: not shown
notes: human IgG1
B25: anti-mutCALR antibody clone 41 (antibody, human IgG1, lambda, V domains shown)
VH: EVQLVQSGAEVKKPGASVKVSCKVSGYTLTELSMHWVRQAPGKGLEWMGLVDPEDGETIYAQKFQGRVTMTEDTSTDTAYMELSSLRSEDTAVYYCAREEWSGDGDDAFDIWGQGTMVTVSS
VL: QSVLTQPPSVSAAPGQKVTISCSGSSSNIGSYSVSWYQQLPGTAPKLLIYDNNKRPSGIPDRFSGSNSGTSATLGITGLQTGDEADYYCGTWDSSLSAWVFGGGTKLTVLG
notes: human IgG1
B26: anti-mutCALR antibody clone 40 (antibody, human IgG1, lambda, V domains shown)
VH: B25 VH with L32S
VL: B25 VL
notes: human IgG1

Target: T1, human mutCALR on BaF3 cells stably …
Assay: flow cytometry, BaF3 MPL-mutCALR cells
Description: On the day of the assay, cells were washed and resuspended in assay buffer. Approximately 200,000 cells/well were added to 96-well plates and stained with the indicated concentration of antibodies for 30 minutes on ice. Cells were then washed and stained with goat anti-human secondary conjugated to R-phycoerythrin (R-PE) (Jackson Immuno Research Laboratories) for 30 minutes on ice. The cells were then washed and analyzed by flow cytometry.

Binder	MPL-mutCALR AUC	EC50
B1	91600	–
B2	92700	–
B3	70100	0.7 µg/mL
B4	124000	–
B5	65900	–
B6	67800	29.3 µg/mL
B7	65200	77.3 µg/mL
B8	41500	0.42 µg/mL
B9	55200	–
B10	60400	4.15 µg/mL
B11	77900	3.19 µg/mL
B12	63800	–
B13	80900	9.64 µg/mL
B14	45700	0.01 µg/mL
B15	52500	0.01 µg/mL
B16	62100	0.02 µg/mL
B17	73800	0.01 µg/mL
B18	58200	0.3 µg/mL
B19	69700	0.05 µg/mL
B20	64600	0.02 µg/mL
B21	38700	0.15 µg/mL
B22	37000	1.44 µg/mL
B23	51500	–
B24	65800	–
B25	60600	–
B26	52900	0.07 µg/mL

Target: T2, human Type 1 mutCALR on Ba/F3 cells …
Assay: cell-based or functional assay

Binder	IC50, inhibition of pSTAT5
B1	0.062 µg/mL
B2	0.018 µg/mL
B3	0.032 µg/mL
B4	0.035 µg/mL
B5	0.03 µg/mL
B6	0.031 µg/mL
B7	0.024 µg/mL
B8	0.125 µg/mL
B9	0.037 µg/mL
B10	0.193 µg/mL
B11	0.037 µg/mL
B12	0.054 µg/mL
B13	0.039 µg/mL
B14	26.8 µg/mL
B15	0.47 µg/mL
B16	0.444 µg/mL
B17	0.092 µg/mL
B18	0.03 µg/mL
B19	0.052 µg/mL
B20	0.402 µg/mL
B21	80.4 µg/mL
B22	3.55 µg/mL
B23	3.97 µg/mL
B24	0.346 µg/mL
B25	0.364 µg/mL
B26	0.742 µg/mL
